Measured values from patent publication US9833505.

Target: ZIKV Recombinant Envelope Protein (Meridian Life Sciences, Cat # R01635) (Zika virus)
Experiment: ELISA on coated recombinant ZIKV E protein, dilutions of the mAb as positive control

monoclonal anti-Flavivirus group antigen clone D1-4G2-4-15, ascites (Cat# MAB10216, EMD Millipore) (antibody)
end point titre: 16000
